According to patent US20220267751A1 (MONASH UNIVERSITY, published 2022):

B1: recombinant plasmin (enzyme)
heavy: EPLDDYVNTQGASLFSVTKKQLGAGSIEECAAKCEEDEEFTCRAFQYHSKEQQCVIMAENRKSSIIIRMRDVVLFEKKVYLSECKTGNGKNYRGTMSKTKNGITCQKWSSTSPHRPRFSPATHPSEGLEENYCRNPDNDPQGPWCYTTDPEKRYDYCDILECEEECMHCSGENYDGKISKTMSGLECQAWDSQSPHAHGYIPSKFPNKNLKKNYCRNPDRELRPWCFTTDPNKRWELCDIPRCTTPPPSSGPTYQCLKGTGENYRGNVAVTVSGHTCQHWSAQTPHTHNRTPENFPCKNLDENYCRNPDGKRAPWCHTTNSQVRWEYCKIPSCDSSPVSTEQLAPTAPPELTPVVQDCYHGDGQSYRGTSSTTTTGKKCQSWSSMTPHRHQKTPENYPNAGLTMNYCRNPDADKGPWCFTTDPSVRWEYCNLKKCSGTEASVVAPPPVVLLPDVETPSEEDCMFGNGKGYRGKRATTVTGTPCQDWAAQEPHRHSIFTPETNPRAGLEKNYCRNPDGDVGGPWCYTTNPRKLYDYCDVPQCAAPSFDCGKPQVEPKKCPGR
light: VVGGCVAHPHSWPWQVSLRTRFGMHFCGGTLISPEWVLTAAHCLEKSPRPSSYKVILGAHQEVNLEPHVQEIEVSRLFLEPTRKDIALLKLSSPAVITDKVIPACLPSPNYVVADRTECFITGWGETQGTFGAGLLKEAQLPVIENKVCNRYEFLNGRVQSTELCAGHLAGGTDSCQGDSGGPLVCFEKDKYILQGVTSWGLGCARPNKPGVYVRVSRFVTWIEGVMRNN
notes: Made by cleaving rPlg with tPA; also called rPlm; recombinant Plm

What was measured:
[1] = molecular target: T1, recombinant streptokinase from Streptococcus pyrogenes (so in the source) (Streptococcus pyrogenes (so in the source)); test: SPR (Biacore T200), SK on Ni2+-NTA chip, 1:1 Langmuir model
T1 construct: Immobilised on a Ni2+-NTA chip; also called SK

[2] = molecular target: T2, native plasminogen (purchased from Merck, purified from human plasma) (human, UniProt P00747 20-810); test: SPR (Biacore T200), α2-AP on Ni2+-NTA chip, two-state reaction model, kd1; kd1, first step of the two-state model
T2 construct: mature; also called native Plg; nPlg

[3] = molecular target: T2, native plasminogen (purchased from …); test: SPR (Biacore T200), α2-AP on Ni2+-NTA chip, two-state reaction model; overall KD of the two-state reaction model
recombinant plasminogen = molecular target: T3, recombinant plasminogen (human, UniProt P00747 20-810); test: SPR (Biacore T200), α2-AP on Ni2+-NTA chip, 1:1 Langmuir model
T3 construct: also called rPlg; recombinant Plg

[4] = molecular target: T4, native plasmin (purchased from Haematologic Technologies) (UniProt P00747 97-580; P00747 581-810, limits assumed); test: as above
T4 construct: Plasmin has two disulphide-linked chains (heavy and light); also called native Plm

recombinant plasmin = molecular target: B1; test: as above
[5] = molecular target: T2, native plasminogen (purchased from …); test: SPR (Biacore T200), α2-AP on Ni2+-NTA chip, two-state reaction model, ka1; ka1, first step of the two-state model

Row | Binder | Kd [1] | koff [1] | kon [1] | koff [2] | Kd [3] | Kd (recombinant plasminogen) | koff (recombinant plasminogen) | kon (recombinant plasminogen) | Kd [4] | koff [4] | kon [4] | Kd (recombinant plasmin) | koff (recombinant plasmin) | kon (recombinant plasmin) | kon [5]
1 | B1 | 0.04 nM | 1.6e-05 s⁻¹ | 410000 M⁻¹ s⁻¹ |  |  |  |  |  |  |  |  |  |  |  | 
2 | recombinant alpha 2-antiplasmin (other, UniProt P08697 40-491, looked up, Serpin, immobilised on a Ni2+-NTA chip; also called α2-AP; α2AP) NQEQVSPLTLLKLGNQEPGGQTALKSPPGVCSRDPTPEQTHRLARAMMAFTADLFSLVAQTSTCPNLILSPLSVALALSHLALGAQNHTLQRLQQVLHAGSGPCLPHLLSRLCQDLGPGAFRLAARMYLQKGFPIKEDFLEQSEQLFGAKPVSLTGKQEDDLANINQWVKEATEGKIQEFLSGLPEDTVLLLLNAIHFQGFWRNKFDPSLTQRDSFHLDEQFTVPVEMMQARTYPLRWFLLEQPEIQVAHFPFKNNMSFVVLVPTHFEWNVSQVLANLSWDTLHPPLVWERPTKVRLPKLYLKHQMDLVATLSQLGLQELFQAPDLRGISEQSLVVSGVQHQSTLELSEVGVEAAAATSIAMSRMSLSSFSVNRPFLFFIFEDTTGLPLFVGSVRNPNPSAPRELKEQQDSPGNKDFLQSLKGFPRGDKLFGPDLKLVPPMEEDYPQFGSPK |  |  |  | 0.065 s⁻¹ | 9.8 nM | 3.4 nM | 0.0005 s⁻¹ | 150000 M⁻¹ s⁻¹ | 0.85 nM | 0.0043 s⁻¹ | 5.1e+06 M⁻¹ s⁻¹ | 0.68 nM | 0.00011 s⁻¹ | 160000 M⁻¹ s⁻¹ | 1.1e+06 M⁻¹ s⁻¹
